The data set is described as follows: soluble on expression in E. coli; label from the status in PepcDB or PDB records.
With “MLSVSPLLQSPSSASMRFLSLDAYGRVLDWISWQDAACLYVRNAVSWTLGDPCLSIHGGISRLTGKRSVIALHPIIASRGHARTYVPVPTPALTNQALFARDDHLCLYCGQQFSRFQLTRDHVIPISKGGLDTWENVVTACFHCNSLKANRTPQQAGMRLLAVPYRPSWIEHLILSNRNILADQMAFLKAQLPKRSKLSRNLEHHHHHH”, the “soluble on expression in E. coli” value was “not soluble”.
Then “LESLLTLPLAGEARVRILQITDTHLFAQKHEALLGVNTWESYQAVLEAIRPHQHEFDLIVATGDLAQDQSSAAYQHFAEGIASFRAPCVWLPGNHDFQPAMYSALQDAGISPAKRVFIGEQWQILLLDSQVFGVPHGELSEFQLEWLERKLADAPERHTLLLLHHHPLPAGCSWLDQHSLRNAGELDTVLAKFPHVKYLLCGHIHQELDLDWNGRRLLATPSTCVQFKPHCSNFTLDTIAPGWRTLELHADGTLTTEVHRLADTRFQPDTASEGY”, with “soluble”.
“MHHHHHHSSGVDLGTENLYFQSMSTDSVISSESGNTYYRVVLIGEQGVGKSTLANIFAGVHDSMDSDCEVLGEDTYERTLMVDGESATIILLDMWENKGENEWLHDHCMQVGDAYLIVYSITDRASFEKASELRIQLRRARQTEDIPIILVGNKSDLVRCREVSVSEGRACAVVFDCKFIETSAAVQHNVKELFEGIVRQVRLRRDSKEKN”: the “soluble on expression in E. coli” value is listed as “soluble”.
Then “VFLDFEKGIEEFEAKIEQLRFAQDNSALDISAEIARLQTKSLGLTKSVYAKLTPWQISQVARHPQRPYTLDYVQHLFTDFEELHGDRNFADDQAIVGGLARFNGQTVMIIGHQKGRDTKEKIHRNFGMPKPEGYRKALRLMRLAEKFSI”, with “not soluble”; and “MKKEIIVYTISDSLGETSQKLLAAASAQYPDISFLNRYNFSFVTTEEELLEILKDALKDKALVVSTLVSKQLITAAKEFSERTGLLYLDLMAPFFELIQAKAGVDPIEEPGRRHQLDRAYFDKISAIEFAVKYDDGKNPQGFLDSDILLLGVSRTSKTPVSMYLANQGYRVSNLPLIPEVPLPPILEEMDPQKMIGLVCSPETLGQIRSSRLASLGLGNETSYTNVERIEQELAYAEEIFAKYGIPVIDVTAKSVEETAFLIKEKLDERN”, with “not soluble”.
Then “MSLRPTIYDVAKAAGVSKSLVSLVLRGSPNVSKESEAAVKTAIKKLNYQPNRAASDLAAKRTQLIAVLIDDYSNPWFIDLIQSLSDVLTPKGYRLSVIDSLTSQAGTDPITSALSMRPDGIIIAQDIPDFTVPDSLPPFVIAGTRITQASTHDSVANDDFRGAEIATKHLIDLGHTHIAHLRVGSGAGLRRFESFEATMRAHGLEPLSNDYLGPAVEHAGYTETLALLKEHPEVTAIFSSNDITAIGALGAARELGLRVPEDLSIIGYDNTPLAQTRLINLTTIDDNSIGVGYNAALLLLSMLDPEAPHPEIMHTLQPSLIERGTCAPREGHHHHHH”, with “soluble”; and “MTTAVQPSDTTGFGGGPAGSRASDLIQFQEIMSESAESSSSSSQTNVSAANTLPRESNGQNYADDPSHVYTNIREIEELNSRPVPPTPRADAQPRRDLLNGWFEYETDVGRTFFFNKETGKSQWIPPRFIRTPAQVQEFLRATRTNLDTTCSFQGSSTSSSEEQKENKMRESLADDDRKSQLIEDEEVFDEVCDDVDEQSSPVIDLQSRPLPIPFSDSFTDDEDEDDVKPIEGSIASDSDFDEEPVPTSSRKASTASGVMMPHPYAHVSSFQSTFPRAKNEDTDKLASYVIPPDANETSKTPTAIRVRRPSPTNLRSVSFQNKCTVLKNVPMPQVLPTTSSSFDHHPQYHSNTPDRPILMEDSADFTPSSRCEERRGSGDGREPVRTIRCGDLERSENDEPAEKVVKPKKREWITNYMYLTTAHLILYKDQKSAEKHGKHYDAPQGVWDLRGASVTWYQDNRDVQKKKQRKYIQLELCNTKKYLLRGPNDTEAVEWYKSLEEVVAKLPSPGSSNQPMIDVTNGVARNPSYIGSTRPLSHALIPISRSMRRRDDPMSQSAIETVSTSVSTDEPRPSKETIIEKLRRFFRTRPTVESLKEKGIYKPEPVFGSTLSAICQHENSLVPKFIRVITEVIESKGLETDGIYRVSGNLSAVQKIRCQADQDNYKALVSEEDIHVLTGALKLFFRELTDPLFPISLHKEYTSAMQMPNATTRFKKFEELLSRLPNENRETLKMLLRHLNRVASHSSQNRMQQHNLAIVFGPTLFHNGDGAVNLATKNKKAGKKAKPSKKEETQATPVQSNSHLAFSMIMQSQIVQYLLESANKFDILKAPVNIGR”, with “not soluble”; and “MAHHHHHHMSSTSTTHPQLLLQQSKVKYLMKVCRPLCQFTQKCNRGSWVERTFGAERKKASSASEDNDLLSMHLPFSSDTAPPCGYSTTEAVRLISLPYHPHVYAYCLFESRLIFERAVLHGAIAPNVKPSQFFVHPISVMRHPEKFKLFFGEERSDVLLRLLVDLLGEYDGDDRSVVQKCRAKGVSNENWVPFLRGLGLCLAMGDIASSQATFVMEDCITGGGADCGLSLPGSYEKRGSVAAELLMEASVELGSLTLANLSLSLYRQFLPEVPLTASKKVTICTTRCERRFLEWNQRCLKTGPRR”, with “not soluble”.
Then “MSLGRRAAIYARYSTELQDGRSIDDQVALCREHAARSGLTVVATYDDRAKTSASIFGRDGLARMMEQARARQFDVVIVEALDRLSRDQEDLAHIHKRLSFARIDILTVHEGVADSVSVGLRGLMGTMFLEALKAKTRRGLAGVIRDGRHAGGQTYGYRGVPGEPGKREIVAHEAEIIREIFAAYVEGKSPRTIAGELNARGIAAPRGPKWNASTLNGNPQRGYGILRNPMYDGRLVWNRVTMVRDPDTGRRVNRENPLDARQEVEAEHLRIVPRPLFEAAVRRHAQQAEAVRTGKITKAPPRPFSGLIRCACCGGGMSIHDRCGEAIRIRCSTANESGSCENKARYRLEKIEEAIFLRLRAQLDRPDYLKEFVRVYAEERRRLTETARRDRARLERAAADSRARYMRLVDMMARGLIEGEEADAQVLQAKQAAEIARSELEIASSEDNVVELHPQATAAYTRAIADLSAALQRGDGTFDATSVEALRRIITEITVHPKDEAGDVLVEVRGNMERLLGIGQQIVGGPMVARGGLEPPTPREGHHHHHH”, with “not soluble”.
Regarding “MKFLFYLSADNLEIARKEVLVLAERYGWVEDYQFEERLLLLDYAGEKFFERLAYTNEVTKIYDICSVSELEQVFSEIPVYDRLCCVRVKGGKGKTALERKLGALLWKRGAKVSVSNPEIVYKVYIQDDKCYVGLLEFERDTRQFFLRRPDRRPFLMPSAIKPKLARALVNLTGVLEGETLLDPMCGTGSFLIEAGLMGINPIGIDFIEKIVRGCRVNLEYYGIEGSVLLGDAKNLPLRDESVRGIATDYPYLRSTKAAGTLDELYSKTSEEFERVLKKGGRAAIVTNIDVESFFSNFEIEMKTEERVHGSLTRRIYLLRR”, the “soluble on expression in E. coli” value was “not soluble”.
Then “GPGSYLMLLGLNLIRLLVCSRIAEFHSEMEKIPFATHGSNLYIRFAVGLERYLMEGSYNKLLTSRKKVPSNEYLPVVEMLEQTVRDEVANCIPESYRQLSIPAAQRILMVDTEAKVREIGAKREWALSADGTHFVFTREDDTLQKEIPFKEMIEQHINFVADLQNIV”, with “not soluble”.
Then “MNSKVGCLMAILLLAGCAKQTPPPQANNGWLKKTPQGNSLNVAKSSAGSTTVAYSDVIKQAASHYGVDETLIKAIIQVESGYNPDVVSRSNAVGLMQIKASTAGRDAYRMKGRNGQPSSRELKDPVKNIDIGAAYINILQNQQLAGINDPQTLRYATIVSYANGAGAMLRTFSSDKRLAVNKINSLSPNEFYQHIQKKHPAAQAPRYLWKVDTAYRAMSE”, with “not soluble”; and “MAHHHHHHMRSTSALYRYACDEEGCVSHSELVKLFHGIDVALGTDADATAKADDMTPAPPPPALADKMLLAYAPNLCFPTHLTLSQSYLGDAGLAAFMRMLPVLRWVRAIEARGVGAGPRTIEALSGALTAYLVEGCEEAAALPTVATMGDSVSGAEQLAGGRLPALELVDLRDNDGIYALSGQRLLTALRKRRLMLRAWCAAHAGVGDVVPALEVLVDLDALPPSTANALHEWNEGAANLKYQRMLARETHRWQEQVQVFTVRSAVSEAMKCSDSDMPGTAVAGAAAGQPVGEHVIFRLPSSADGDSQMTQMTCEVNACMSDFLTASCCLSSAKEAAPQPAHVVSGSSSLACPLPTLDGVRAALQVCIDFGADTLAILPHTNATLWYVASVWQQQQKEQHATTPSSSADTAEYVQLNYWEAKANVAALLRGLQANPALETELETSSQAGGVVIQRHLYRLRELYVQLDQNDAPHEDAICTARVAGVGATPLSEMVALYYRIVAALVTRRFSETHLPSMRACEQHISDVTEHVLNHLVVGEVSSEALEARIERLRSSTDAGSVPSGRPSGASDFSQSTRALPPVMAQCLYHLRRHQAEAEAWVKTYAGTAVAAPQPSSSSAAAAPIHAFHACHCADGLRRHMDECVAPTSSNEGLSSNLLPLPCTSCCYHALQAAQTLLQSPGEGSSGECELCARWAILEPVRRALPRELRMFFLDMVIRHRSRVRGGCAYVPSLDSVTGVGAPLPLSMVDWLAYTEHQSENWAKVLRVFGEWYRLRALESYGIAEARTLLRQPPT”, with “not soluble”.
Then “MEWYMGKYIRPLSDAVFTIASDDLWIESLAIQQLHTTANLPNMQRVVGMPDLHPGRGYPIGAAFFSVGRFYPARRRGNGAGNRNGPLL”, with “not soluble”.
“MMNYELMTTQNAPVKMWTKGVPVEDDARQQLINTAKMPFIFKHIAVMPDVHLGKGSTIGSVIPTKGAIIPAAVGVDIGCGMNALRTSLTAADLPENLADLRSAIEAAVPHGRTTGRGHRDVGAWGNPPANVNEKWAQLEAGYQWLTQKYPRFLNTNNYKHLGTLGTGNHFIEICLDETDRVWIMLHSGSRGIGNAIGTYFIGLAQQEMQEQLETLPSRDLAYFNEGSEYFDDYLKAVHWAQQFASLNREAMMENALAALQRCVEKPSALDMDEINCHHNYVQKEQHFGEEIYVTRKGAVSARRGEFGIIPGSMGAKSFIVRGLGNEESFCSCSHGAGRVMSRTKAKKLFSVDDQIRATAHVECRKDADVIDEIPMAYKDIDAVMAAQSDLVEIMYALRQVVCVKGLEHHHHHH”: the “soluble on expression in E. coli” value is “not soluble”.
Then “MPLNRNHSELRSGKVNLKNGDPFTIALFGVDSDEKRKQQGGGERSDTIMVLSINPKEKKTELVSIPRDTKAEIAGRGTEEKINHAYAYGGPNMAVKTIEKLMNVPIDHYATIDMDGLHDMIDTLGGVDVVSNSTFTMGANHFVKGEKTHVDGDAAMDFIRSRKEDGAGGDFGRQERQQLILEAMADKMTSASSITHFNTLMNQIQKNVKTDLKLGDLNTIRTKYKDANDQVNRHQLEGEGGIQNDGLYYFIPSDASKNENTQLLRDNLNLLEHHHHHH”, with “soluble”; and “MGSDKIHHHHHHMASFVDKLHPLVLNIGLAIHNADWNWKNVNSPFTRLYYVTEGTAQVLISGKTQILKANHMYFIPAFTKHSYICNSYFSHYYLHIYEEHQSDSNLLDNWDFPIEIPAVEIDLALFQRLCTINPHMTLQKSDPTSYDNNYTLMQNLLKNKQRTLSDKIESRGIVYQLLARFLKRAQVKMELKDNRIEEAIHYIRKHINETIDLRVLAENSCLSKDHFIRLFKKETGDTPLKYINRKKIEKAQLILITDDMSIKNVALNLAFEDYSYFNRLFKKITGITPQEYRTSYHS”, with “not soluble”.
Then “MKTIEIFDPAMCCPTGLCGTNINPELMRIAVVIETLKRQGVVVTRHNLRDEPQVYVSNKTVNQYLQKNGAEALPITLVDGEIAVSKDYPTTKQMSEWTGINLD”, with “soluble”; and “MALANFDGPFDLLLQLIHSHKLDITEVALAQVTDEFIAYTKTLSSSAEDLDEVTEFLVVASTLLDLKAARLVPRGEVDSEEDLALLETRDLLFARLLQYRAYKQVADLFADWQRDAARAYPATLSLEEHHANLLPEVKIGKNADEFAELAAAVFRPKPDHVDTGHIHQVAVSVPEQAGRILNTLKVAGENTWVTFGALIADAELNMIVVGRFLALLELYKARAIGIEQPEPLQDMSVAWTGLDVDPAVVAASNWE”, with “soluble”.
